Drawing on article PMC9104438, “Application of a Fluorescence Anisotropy-Based Assay to Quantify Transglutaminase 2 Activity in Cell Lysates” (International Journal of Molecular Sciences, 2022), this text covers Vmax, Km and Ki for one substance.

The target in one series is T1, hTGase 1 (Homo sapiens, UniProt P22735).
T1 sequence (P22735 1-817): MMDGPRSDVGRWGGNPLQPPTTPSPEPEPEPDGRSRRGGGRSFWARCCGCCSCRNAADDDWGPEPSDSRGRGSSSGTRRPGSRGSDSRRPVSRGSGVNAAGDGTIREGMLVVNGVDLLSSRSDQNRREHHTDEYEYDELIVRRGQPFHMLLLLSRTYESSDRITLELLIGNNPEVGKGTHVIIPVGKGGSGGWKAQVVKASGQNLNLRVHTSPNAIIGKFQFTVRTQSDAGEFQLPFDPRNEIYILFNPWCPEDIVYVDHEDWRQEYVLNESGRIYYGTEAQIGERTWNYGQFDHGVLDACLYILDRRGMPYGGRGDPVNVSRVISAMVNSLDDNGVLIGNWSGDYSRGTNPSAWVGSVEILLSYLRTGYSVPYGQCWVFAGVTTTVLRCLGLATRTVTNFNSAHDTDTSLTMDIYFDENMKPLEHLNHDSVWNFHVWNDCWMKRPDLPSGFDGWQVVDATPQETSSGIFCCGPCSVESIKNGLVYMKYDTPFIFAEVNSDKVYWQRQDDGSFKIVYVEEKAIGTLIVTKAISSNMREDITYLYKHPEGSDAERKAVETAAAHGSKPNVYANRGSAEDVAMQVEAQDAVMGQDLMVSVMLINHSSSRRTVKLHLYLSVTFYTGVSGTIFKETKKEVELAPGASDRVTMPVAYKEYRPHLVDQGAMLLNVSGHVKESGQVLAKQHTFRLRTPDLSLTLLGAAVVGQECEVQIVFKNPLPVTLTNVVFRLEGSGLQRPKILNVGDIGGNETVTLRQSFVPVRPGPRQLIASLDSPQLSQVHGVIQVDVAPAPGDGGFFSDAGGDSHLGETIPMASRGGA
Put plainly: FA-based assay, kinetic characterization of acyl donor DMC with R-I-Cad. The format is biochemical. Details: purchased Zedira T009. The settings on record: hTGase 1 2 µg/mL, R-I-Cad 0.74 µM, pH 8.0, 30 °C, mean (SEM). The method, then:
(§1) For the kinetic characterization of DMC (Figure 1B) in the presence of a fixed concentration of R-I-Cad (0.74 µM), eight different concentrations of DMC (0.3–300 µM) were used (2–3 separate experiments, each performed in duplicate). The corresponding stock solutions of DMC and R-I-Cad were prepared in assay buffer A and DMSO, respectively. […] Values for Km, Ki and Vmax were calculated according to the equation of substrate inhibition (Equation (2)). (2) v=Vmax∗[S]/Km+[S]∗(1+[S]/Ki)

The next series deals with T2, hTGase 6 (Homo sapiens, UniProt O95932).
T2 sequence (O95932 1-706): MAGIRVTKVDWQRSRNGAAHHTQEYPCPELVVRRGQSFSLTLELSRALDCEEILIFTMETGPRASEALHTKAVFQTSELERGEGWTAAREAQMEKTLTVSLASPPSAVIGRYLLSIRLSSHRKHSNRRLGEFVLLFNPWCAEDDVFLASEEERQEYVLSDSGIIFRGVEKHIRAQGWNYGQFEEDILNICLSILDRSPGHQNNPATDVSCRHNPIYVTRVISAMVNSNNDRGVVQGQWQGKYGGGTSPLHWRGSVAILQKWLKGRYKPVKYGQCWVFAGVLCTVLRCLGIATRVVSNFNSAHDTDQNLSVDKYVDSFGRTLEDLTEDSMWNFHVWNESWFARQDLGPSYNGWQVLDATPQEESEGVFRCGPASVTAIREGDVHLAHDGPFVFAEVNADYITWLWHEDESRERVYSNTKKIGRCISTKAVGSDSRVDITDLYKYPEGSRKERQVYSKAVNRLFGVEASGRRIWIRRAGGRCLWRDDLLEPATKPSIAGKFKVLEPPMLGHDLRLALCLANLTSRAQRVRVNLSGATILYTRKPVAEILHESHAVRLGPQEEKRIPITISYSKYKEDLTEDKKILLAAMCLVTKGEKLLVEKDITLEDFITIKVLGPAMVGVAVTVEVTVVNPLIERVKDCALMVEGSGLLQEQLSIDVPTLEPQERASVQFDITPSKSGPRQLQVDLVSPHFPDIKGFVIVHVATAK
The series is described as above. The format is biochemical. Set-up: purchased Zedira T021. The settings on record: hTGase 6 5 µg/mL, R-I-Cad 0.74 µM, mean (SEM). The method, then:
as §1

[1] abbreviates: read-out: Ki (substrate inhibition).

As usually defined, the Km is the substrate concentration at which the rate is half of its maximum. For the substance N,N-dimethylated casein [DMC], the Vmax with hTGase 1 (DMC 0.3–300 µM, 5% DMSO, 500 µM DTT) is 121 (13) mA mL s^−1 mg^−1; in the series with hTGase 6 (pH 8.0, 30 °C) it was 27.1 (4.1) mA mL s^−1 mg^−1. In addition, the values for the Km with hTGase 1 and in the series with hTGase 6 were 8.77 µM and 16.6 µM, respectively. In addition, the results for the Ki on hTGase 1 (setting [1]) and on hTGase 6 (setting [1]) were 270 µM and 189 µM, respectively.
